From patent US11274309B2 (dated 2022) come the findings set out here.

The target of one assay is T1, peptide on HLA-A*02:01 (human).
T1 peptide: VYALPLKML
As to the kind of experiment: activation reporter or marker.

The target in the next assay is T2, peptide on HLA-A*24:02 (human).
T2 peptide: VYALPLKML
Kind of assay: activation reporter or marker.

B1: JG9-TCR (TCR, V domains shown)
Valpha: GQQLNQSPQSMFIQEGEDVSMNCTSSSIFNTWLWYKQEPGEGPVLLIALYKAGELTSNGRLTAQFGITRKDSFLNISASIPSDVGIYFCAGPMKTSYDKVIFGPGTSLSVIP
Vbeta: DAGVIQSPRHEVTEMGQEVTLRCKPISGHDYLFWYRQTMMRGLELLIYFNNNVPIDDSGMPEDRFSAKMPNASFSTLKIQPSEPRDSAVYFCASSSANYGYTFGSGTRLTVV
With B1, the binding result in the assay with peptide on HLA-A*02:01 and with peptide on HLA-A*24:02 was “no recognition” each time.
